In assay [1] the target is recombinant NS3 protease with the NS4A peptide cofactor … (molar ratio enzyme:cofactor 1:100) (hepatitis C virus genotype 1b). Briefly: cell-based or functional assay.
Assay [2] has the same target. Briefly: cell-based or functional assay. This is another data set of the same source.

Like-named read-outs stand apart in the source and are kept apart here. Where no end group is shown, it is not given here. [ ]: non-standard residue; d: D form. Pro(1-NpCH2O) = Pro(4-R13), R13 = 1-NpCH2O; Pro(2-NpCH2O) = Pro(4-R13), R13 = 2-NpCH2O; P1(R14 Et, 1R,2R) = not defined here; P1(R14 Et, 1S,2S) = not defined here; Pro(4-OBn) = Pro(4-R13), R13 = OBn; Pro(O-Bn) = Pro(4-R13), R13 = O-Bn; Pro(OBn) = Pro(4-R13), R13 = OBn; Chg = N[C@H](C(=O)O)C1CCCCC1; Acca = not defined here; Nva = CCC[C@H](N)C(=O)O; Ac3c = NC1(C(=O)O)CC1

For orientation: IC50 means the concentration that gives 50% inhibition.

On to Ac-[Chg][Chg]P[P1(R14 Et, 1S,2S)] (not fully specified (residue 3); reading uncertain) [Compound 506 (Table 5): Ac-Chg-Chg-Pro(1-NpCH2O)-P1(R14 Et; 1S, 2S)], for which the 50% inhibitory concentration (IC50) in assay [1] was determined as 4.85 µM.

Take Ac-[Chg]VP[Ac3c] (not fully specified (residue 3); printed as Ac-Chg-Val-Pro(1-NpCH2O)-Acca) [Compound 227 (Table 2): Ac-Chg-Val-Pro(1-NpCH2O)-Acca]: in assay [1], the IC50 came to 3 µM.

For the molecule Ac-D[dE]IVP[Nva] [Compound 128 (Table 1): Ac-Asp-D-Glu-Ile-Val-Pro-Nva], the concentration for half-maximal inhibition (IC50) in assay [2] is 7.4 µM.

As to Ac-D[dE]IV[Pro(OBn)][(1S,2S)‑1‑amino‑2‑ethylcyclopropanecarboxylic acid]-{NH‑(R)‑CHMePh} [Compound 1002 (Table 10): Ac-Asp-D-Glu-Ile-Val-Pro(OBn)-P1(R14 Et; 1S, 2S)-NH-(R)-CHMePh], the IC50 in assay [2] is 49 µM.

For the molecule Ac-[Chg]VP[Ac3c] (not fully specified (residue 3); printed as Ac-Chg-Val-Pro(R13)-Acca) [Compound 257 (Table 2): Ac-Chg-Val-Pro(R13)-Acca, R13 drawn], the IC50 in assay [1] is 2.2 µM.

Take Ac-D[dV]IV[Pro(O-Bn)][Nva] [Compound 202 (Table 2): Ac-Asp-D-Val-Ile-Val-Pro(O-Bn)-Nva]: the IC50 in assay [2] was 0.93 µM.

For the molecule Ac-D[dE][Chg]EE[Acca] (reading uncertain) [Compound 132 (Table 1): Ac-Asp-D-Glu-Chg-Glu-Glu-Acca], in assay [2], the IC50 was 36 µM.

Consider Ac-D[dE]IV[Pro(2-NpCH2O)][Nva] [Compound 213 (Table 2): Ac-Asp-D-Glu-Ile-Val-Pro(2-NpCH2O)-Nva], for which, in assay [2], the IC50 was 0.036 µM.

Consider Ac-D[dE][Chg]V[Pro(O-Bn)][Nva] [Compound 211 (Table 2): Ac-Asp-D-Glu-Chg-Val-Pro(O-Bn)-Nva], for which, in assay [2], the IC50 turned out to be 0.12 µM.

B1: Compound 236 (Table 2): Ac-Gly-thioxo-Ile-Val-Pro(1-NpCH2O)-Nva (peptide)
peptide: Ac-GIVP[Nva]
modifications: not fully specified (residue 4); also: Ile2 thioxo (L-thionoisoleucine), thioamide
Take B1: the IC50 in assay [2] worked out at 4 µM.

Consider Ac-[Chg]VP[P1(R14 Et, 1R,2R)] (not fully specified (residue 3); reading uncertain) [Compound 513 (Table 5): Ac-Chg-Val-Pro(1-NpCH2O)-P1(R14 Et; 1R, 2R)], for which, in assay [1], the IC50 is 1.66 µM and the fold potency against the corresponding 1S,2S isomer (compound 514) came out at 25 fold.

As to Ac-D[dE]IV[Pro(4-OBn)][Nva] [Compound 218 (Table 2): Ac-Asp-D-Glu-Ile-Val-Pro(O-Bn)-Nva], the 50% inhibitory concentration (IC50) in assay [2] was found to be 0.49 µM.

For the molecule Ac-D[dE][Chg]V[Pro(1-NpCH2O)][Acca] (reading uncertain) [Compound 215 (Table 2): Ac-Asp-D-Glu-Chg-Val-Pro(1-NpCH2O)-Acca], in assay [2], the 50% inhibitory concentration (IC50) amounted to 0.014 µM.

For the molecule D[dE]IV[Pro(O-Bn)][1‑amino‑2‑vinylcyclopropanecarboxylic acid] (not fully specified; also: further groups not given here) [Compound 636 (Table 6): P6 Asp, P5 D-Glu, P4 Ile, P3 Val, R13 O-Bn, R14 vinyl], the IC50 in assay [2] was 0.47 µM.

Turning to Ac-[Chg]VPX (not fully specified (residue 3); printed as Ac-Chg-Val-Pro(O-Bn)-P1) [Compound 228 (Table 2): Ac-Chg-Val-Pro(O-Bn)-P1, P1 drawn], the IC50 in assay [1] was 35 µM.

Consider Ac-D[dE]IV[Pro(OBn)][(1S,2S)‑1‑amino‑2‑ethylcyclopropanecarboxylic acid]-{NH‑(S)‑CHMePh} [Compound 1001 (Table 10): Ac-Asp-D-Glu-Ile-Val-Pro(OBn)-P1(R14 Et; 1S, 2S)-NH-(S)-CHMePh], for which the IC50 in assay [2] stood at 2 µM.

Ac-D[dE]IV[Pro(OBn)][(1R,2R)‑1‑amino‑2‑ethylcyclopropanecarboxylic acid] [Compound 517 (Table 5): Ac-Asp-D-Glu-Ile-Val-Pro(OBn)-P1(R14 Et; 1R, 2R)]: the IC50 in assay [2] was determined as 0.075 µM.

The values are drawn from US6767991.
